In patent publication US20220040297A1:
Changes are numbered by the printed parent chain. Names and notes keep the numbering of the source. One block for each binder: values may come before it.

Tests used:
[1] = molecular target: CD3ε homodimer protein (human) (UniProt P07766); test: SPR, immobilized CD3ε homodimer
[2] = molecular target: CD3ε homodimer protein (human) (UniProt P07766); test: SPR, CD3e immobilized
[3] = molecular target: CD3ε homodimer protein (human) (UniProt P07766); test: SPR, CD3ε homodimer on chip

CD3ε homodimer protein (human), sequence (P07766 23-126 limits assumed): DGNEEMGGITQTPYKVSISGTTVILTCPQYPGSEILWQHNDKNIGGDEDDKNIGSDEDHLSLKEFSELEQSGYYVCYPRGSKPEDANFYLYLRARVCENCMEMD

ratio of amounts bound (vs GLS3000) [1]: 0.03
KD ratio to GLS3000 [2]: 3.43
B1: GLS3000 H27dM (antibody, IgG1, name in Kabat numbering, V domains shown)
VH: QVQLVESGGGVVQPGRSLRLSCAASGFTFSNAWMHWVRQAPGKGLEWVAQIKAKSNNYATYYAESVKGRFTISRDDSKNSLYLQMNSLKTEDTAVYYCRYVHYGAYYGVDAWGQGTTVTVSS
VL: DIVMTQSPLSLPVTPGEPASISCRSSQSLVMSNRNTYLHWYQQKPGQAPRLLIYKVSNRFSGVPDRFSGSGSGTDFTLKISRVEAEDVGVYYCGQGTQVPYTFGQGTKLEIK

ratio of amounts bound vs CE115HA000 [3]: 9.24
B2: CE115HA000 V95E (antibody, name in Kabat numbering, V domains shown)
VH: B1 VH with V101E
VL: B1 VL with M31H

KD ratio to GLS3000 [2]: 13600
B3: GLS3000 H27dD (antibody, IgG1, name in Kabat numbering, V domains shown)
VH: B1 VH
VL: B1 VL with M31D

ratio of amounts bound vs CE115HA000 [3]: 9.24
B4: CE115HA000 D101R (antibody, name in Kabat numbering, V domains shown)
VH: B1 VH with D110R
VL: B1 VL with M31H

ratio of amounts bound vs CE115HA000 [3]: 9.28
B5: CE115HA000 Y97S (antibody, name in Kabat numbering, V domains shown)
VH: B1 VH with Y103S
VL: B1 VL with M31H

ratio of amounts bound vs CE115HA000 [3]: 9.27
B6: CE115HA000 Y97R (antibody, name in Kabat numbering, V domains shown)
VH: B1 VH with Y103R
VL: B1 VL with M31H
